Experimental data from paper PMC3962104.

Target: T1, S. cerevisiae Ump1, C-terminally 6His-tagged (wild type) (S. cerevisiae), P38293
T1 chain: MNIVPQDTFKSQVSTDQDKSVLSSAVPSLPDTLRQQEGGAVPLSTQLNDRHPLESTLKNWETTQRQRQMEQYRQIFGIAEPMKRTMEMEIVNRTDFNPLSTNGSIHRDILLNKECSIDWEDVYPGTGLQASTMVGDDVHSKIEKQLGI
Assay: non-reducing SDS-PAGE; ion-exchange peak fractions loaded in sample buffer without (-) or with (+) 10 mM DTT, 15% SDS-PAGE, Coomassie Blue; the 36 kDa species is seen when no reducing agent is added
Conditions: remark: other sources report otherwise

stoichiometry N: 2
B1: S. cerevisiae Ump1, C-terminally 6His-tagged (wild type), P38293 1-148 (natural protein)
chain: T1 chain
